Assay results published in the supplement of paper PMC10567573.
± gives the standard deviation.

Assay: protein stability index of a GFP-peptide fusion (GPS, HEK-293T) (PSI 1-6); higher = more stable
[1] = treatment: DMSO, c terminus: a fixed tail appended
[2] = treatment: MLN4924 1 uM, 8 h, c terminus: a fixed tail appended
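Note: 24-mer peptide tiles fused after GFP, lentivirally expressed, FACS-sorted into six equal bins by GFP/DsRed ratio, decoded by Illumina sequencing, PSI is the read-weighted mean bin number.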

| Sequence | protein stability index [1] | protein stability index [2] | protein stability index (treatment: DMSO, c terminus: native) | protein stability index (treatment: MLN4924 1 uM, 8 h, c terminus: native) |
| --- | --- | --- | --- | --- |
| SLEIEEKINKIRWLPQQNAAYFLL [PPP2R2B] | 2.34 ± 1.1 | 2.01 ± 1.1 |  |  |
| SLQLVFGIELMEVDPIGHLYIFAT [MAGEA3] | 2.91 ± 0.23 | 2.74 ± 0.76 |  |  |
| SLQQMQELSNILNLSYKQVKTWFQ [NANOGP8] | 2.27 ± 0.34 | 2.16 ± 0.12 |  |  |
| SLRSSSSKLAQLTLEQILEHLDNL [INTS3] | 2.31 ± 0.2 | 2.55 ± 0.26 |  |  |
| SLRTLKPEGNILRDRFKSFQRRNM [NOP53] | 3.22 ± 0.23 | 3.21 ± 0.21 |  |  |
| SMDIARGLMVTCGTDRIVKIWDMT [WDFY1] | 2.25 ± 0.43 | 1.92 ± 0.33 |  |  |
| SMHKYQPRLHIVKADENNGFGSKN [TBX5] | 3.94 ± 0.4 | 4.24 ± 0.33 |  |  |
| SNQEVLQSCLLVIFATKPHVLPAV [PYCR3] | 3.34 ± 0.4 | 3.01 ± 0.34 |  |  |
| SPGHSSAGQEGEDTLRRRLLAPEA [TOR1AIP2] | 4.29 ± 0.052 | 4.51 ± 0.27 |  |  |
| SPSPSSRVTVSRASSSRSVRTTRG [LMNB1] | 5.08 ± 0.27 | 5.12 ± 0.09 |  |  |
| SQEEAQGLPSSELDAVENQLKWAS [ZNF24] | 5.32 ± 0.2 | 5.08 ± 0.38 |  |  |
| SQIQYMNTVVSTYVTTNVSLIPPR [TMEM106C] | 2.12 ± 0.22 | 2.07 ± 0.12 |  |  |
| SQLPQVLHVSLGQKLVAAYVLGLL [MOSPD3] | 3.26 ± 0.94 | 2.75 ± 1.2 |  |  |
| SRKNATQPPNAEEESGSSSASEEE [INTS3] | 5.53 ± 0.12 | 5.71 ± 0.14 |  |  |
| SRNFIERNHMENGGDHRYVNNYTN [TRIM29] | 3.46 ± 0.22 | 3.57 ± 0.18 |  |  |
| SRPNGTSAMLLVTLGKVLKVIVVM [MED27] | 2.88 ± 0.46 | 2.93 ± 0.68 |  |  |
| SRREREPEPPAAVDFLEPDSGTCP [FCHO1] | 5.43 ± 0.22 | 5.44 ± 0.33 |  |  |
| SRSNNMGIVGGFTQMIREGGARSL [SLC25A25] | 3.17 ± 0.27 | 3.47 ± 0.18 |  |  |
| SSATTYFWYREALDISDSISESGG [SLC6A17] | 2.62 ± 0.46 | 2.73 ± 0.34 |  |  |
| SSISSTSNEQLKVTQEPRAKKGRR [ZMYND11] | 5.24 ± 0.48 | 5.45 ± 0.077 |  |  |
| SSLTADLLSVDAFAAPSPATTASP [SNAP91] | 4.65 ± 0.19 | 4.7 ± 0.083 |  |  |
| SSNLGQHQRIHTGEKPFECNECGK [ZNF232] | 4.78 ± 0.22 | 5.01 ± 0.19 |  |  |

| Sequence | protein stability index [1] | protein stability index [2] | protein stability index (treatment: DMSO, c terminus: native) | protein stability index (treatment: MLN4924 1 uM, 8 h, c terminus: native) |
| --- | --- | --- | --- | --- |
| SSSFTSIASEWFLIANRSYKVSAA [SLC22A15] | 2.26 ± 0.47 | 2.42 ± 0.31 |  |  |
| SSSLAQHQRKHAGEKPFECRQRLI [ZNF8] | 3.74 ± 0.18 | 3.69 ± 0.17 |  |  |
| STDSGFCLDSPGPLDSKENLENPM [CDC25A] | 5.32 ± 0.12 | 5.27 ± 0.14 |  |  |
| STKMDCVWSNWKSQAIDLLYWRDI [RTN1] | 2.37 ± 0.34 | 2.27 ± 0.28 |  |  |
| STPAPAERPLPNPEGLDSDFLAVL [SLA] | 4.29 ± 0.35 | 4.26 ± 0.21 |  |  |
| STPRCAQQAALPRLSRRMASQHSY [CBY2] | 2.3 ± 0.29 | 2.37 ± 0.079 |  |  |
| STSFMSSSSSSSSWLTRRAIRPEN [EMD] | 3.39 ± 0.35 | 3.38 ± 0.16 |  |  |
| SVGHNWRKRMGTRRGRHEQSPTSR [C22orf15] | 4.32 ± 0.065 | 4.49 ± 0.25 |  |  |
| SVTGLDPEARYLFLLDVIPVDGAR [TBX6] | 2.15 ± 0.47 | 2 ± 0.13 |  |  |
| SVTLEDVTPKKSPPPKTNLTPGQS [FAN1] | 5.11 ± 0.18 | 5.24 ± 0.34 |  |  |
| SWNVAVKFLMARKFDVLRAIELFH [PTPN9] | 2.18 ± 0.25 | 2.31 ± 0.6 |  |  |
| SYDELCFLEQRPQSPTLEFLLRNS [EDARADD] | 3.1 ± 0.2 | 3 ± 0.1 |  |  |
| TAAFTTAKAAALSTKTPAPCSEFM [SPAG8] | 3.67 ± 0.14 | 3.84 ± 0.24 |  |  |
| TAGPITGLVYRLNRFRVEISFHFE [TRIM43] | 3.02 ± 0.7 | 3.2 ± 0.52 |  |  |
| TEDLCEKPDDEVKETAHDLDVKSP [RIPK4] | 5.8 ± 0.26 | 5.62 ± 0.27 |  |  |
| TEDVNTLDSEKRTPLHVAAFLGDA [ANKRD44] | 4.72 ± 0.3 | 4.74 ± 0.11 |  |  |
| TEGVTQLKLTVVEDVTVGRRQAVA [ZFYVE21] | 4.07 ± 0.18 | 4.12 ± 0.19 |  |  |
| TENRGNEKEFMKGNQLISNNIKFK [CLCN6] | 4.43 ± 0.28 | 4.52 ± 0.11 |  |  |
| TGGADAYYEMGIHCWDVAGAGIIV [IMPA1] | 2.83 ± 0.79 | 2.97 ± 0.85 |  |  |
| TGSYNNFFRMFDRNTKRDVTLEAS [PPP2R2B] | 3.1 ± 0.26 | 3.47 ± 0.33 |  |  |
| THGVGLVLRVEQQPHLPLLSTLAG [SCNN1D] | 2.12 ± 0.23 | 2.17 ± 0.15 |  |  |
| THLLKQGRSSMGTGLSGGKRPSQE [CRY1] | 4.35 ± 0.18 | 4.53 ± 0.33 |  |  |

| Sequence | protein stability index [1] | protein stability index [2] | protein stability index (treatment: DMSO, c terminus: native) | protein stability index (treatment: MLN4924 1 uM, 8 h, c terminus: native) |
| --- | --- | --- | --- | --- |
| TIEERVNILFDFVKKKKEEGVIDS [EIF5] | 3.68 ± 0.065 | 3.39 ± 0.29 |  |  |
| TIHGLIYNALKLFMEMNQKLFDDC [PPP2R5C] | 2.93 ± 0.33 | 2.89 ± 0.45 |  |  |
| TIRSGISPNLNVVDGRLTYPTCGI [SASS6] | 2.86 ± 0.42 | 3.02 ± 0.26 |  |  |
| TIVEEVQDGKVISSREQVHQTTR [KRT17] |  |  | 5.03 ± 0.23 | 5.08 ± 0.25 |
| TKKHIPYREHKSLTGTARYMSINT [CSNK1G1] | 2.51 ± 0.15 | 2.65 ± 0.23 |  |  |
| TKRSTLIISGVSKVPIAQDELALS [C2CD2L] | 3.16 ± 0.17 | 3.14 ± 0.19 |  |  |
| TLDGYGIHPKSIDLDNYFTARRLL [NFE2L1] | 2.37 ± 0.41 | 2.28 ± 0.26 |  |  |
| TLEGHQRAIMAHMTVEEIYKDRQK [FLOT1] | 4.52 ± 0.13 | 4.7 ± 0.19 |  |  |
| TLGSSFIPGEHFWLLLLTRGLVGV [SPNS1] | 3.15 ± 1.4 | 3.21 ± 0.84 |  |  |
| TLHNLSHHREGLLAIFKSGGIPAL [CTNNB1] | 2.4 ± 0.11 | 2.38 ± 0.24 |  |  |
| TLRQKTVDWRRVSRLQEDPEGTEN [SLA] | 4.87 ± 0.27 | 4.79 ± 0.52 |  |  |
| TLSWYFLLCVNYFFYGETVTDYFF [CDS2] | 3.35 ± 0.64 | 3.48 ± 0.26 |  |  |
| TLYRNRSNLETIFRIIDSDHSGFI [PPEF2] | 2.06 ± 0.4 | 1.99 ± 0.099 |  |  |
| TMLIVHHRTHTGERPYGCDECEKA [ZNF649] | 3.75 ± 0.32 | 3.7 ± 0.49 |  |  |
| TNFEGPPRLKEDQPWMVIEGIRQT [FSD1] | 3.5 ± 0.082 | 3.75 ± 0.33 |  |  |
| TPAEGDTEEDDGFVDILESDLKDD [CDC25B] | 5.34 ± 0.3 | 5.62 ± 0.24 |  |  |
| TPTSPECDYSQYFKTIEELRDKIM [KRT15] | 3.4 ± 0.27 | 3.6 ± 0.43 |  |  |
| TQSVMGFDPLPPSDTIYSYVRPER [TCF25] | 3.52 ± 0.32 | 3.73 ± 0.12 |  |  |
| TQVKVVKFSYMWTINNFSFCREEM [SPOPL] | 2.65 ± 0.92 | 2.77 ± 0.72 |  |  |
| TRAPQRAHEVLQELRDISSMAMEY [FBXO28] | 3.44 ± 0.11 | 3.48 ± 0.3 |  |  |
| TRKHHCRRCGKCFCDRCCSQKVPL [ZFYVE21] | 3.31 ± 0.27 | 3.58 ± 0.19 |  |  |
| TRRAQADLAYQLQVAKTKQQIEEQ [FLOT1] | 4.82 ± 0.19 | 4.8 ± 0.2 |  |  |

| Sequence | protein stability index [1] | protein stability index [2] | protein stability index (treatment: DMSO, c terminus: native) | protein stability index (treatment: MLN4924 1 uM, 8 h, c terminus: native) |
| --- | --- | --- | --- | --- |
| TSALFWEQHDLVYGDWTSGENSDG [CLPTM1] | 4.17 ± 0.18 | 4.34 ± 0.41 |  |  |
| TSLRLVFLLAFGLMIIVCIDQWKN [RETREG3] | 2.21 ± 0.3 | 2.03 ± 0.17 |  |  |
| TSVQEADETTRSDISERPSVDDIE [C2CD2L] | 5.57 ± 0.27 | 5.61 ± 0.19 |  |  |
| TVDKEVEIRKKVLKIYNKREEDFP [MNAT1] | 4.08 ± 0.17 | 4.27 ± 0.12 |  |  |
| TVILIESTNEITYGLPIMVTLMVA [CLCN6] | 3.47 ± 0.47 | 3.32 ± 0.29 |  |  |
| TVPKNDADDESETPEELEEEIPVV [GLT8D2] | 5.63 ± 0.12 | 5.53 ± 0.26 |  |  |
| TVQEAATSRRARASKKTAQPWVEV [MFSD9] | 3.22 ± 0.14 | 3.1 ± 0.25 |  |  |
| TYKHINEVYYAKKKRRAQQAPPQD [DYRK1B] | 3.7 ± 0.085 | 3.66 ± 0.21 |  |  |
| TYRKVMNWKETLVFPPEVPISEKA [STK38L] | 3.09 ± 0.29 | 3.24 ± 0.29 |  |  |
| TYSGKAADVWSLGVMLYTLLVGRY [TRIB1] | 2.42 ± 0.36 | 2.21 ± 0.042 |  |  |
| VAAAAAATTAATAAATTTTTTSAA [SNAP91] | 5.39 ± 0.13 | 5.34 ± 0.068 |  |  |
| VALLTGKFSNIVDKFVIVDCRYPY [CDC25B] | 2.45 ± 1.7 | 2.59 ± 1.2 |  |  |
| VAPPAKQAQQKKAPAKKANSTTTA [BRD3] | 5.11 ± 0.26 | 5.26 ± 0.13 |  |  |
| VAQFVLTEGNPRWEQTHLTYRIEN [MMP1] | 2.35 ± 0.36 | 2.35 ± 0.43 |  |  |
| VAVCPIPAAGLDVTQPCGDCGTIQ [HDAC6] | 3.46 ± 0.24 | 3.81 ± 0.41 |  |  |
| VCDSCHEAITDEERAPTATFHDSK [WDFY2] | 5.02 ± 0.21 | 5.16 ± 0.13 |  |  |
| VCQEVLERSRDVVDDVSVSLRLWD [RHOBTB2] | 3.31 ± 0.19 | 3.44 ± 0.37 |  |  |
| VDGVWTAQRPGITHGVGLVLRVEQ [SCNN1D] | 2.21 ± 0.35 | 2.44 ± 0.24 |  |  |
| VDRWPAPVPGKTLHLPIMGVVMKV [DENND6A] | 2.63 ± 0.39 | 2.4 ± 0.36 |  |  |
| VDYPLHDLVLHTNYTATVRGLRGP [TNXB] | 2.71 ± 0.19 | 2.81 ± 0.24 |  |  |
| VEEGNVQTLLPAACLLQLAEIQEA [KLHL20] | 3.58 ± 0.52 | 3.84 ± 0.43 |  |  |
| VETLVKKKIPIISNAMLVGDKLKF [ACSBG2] | 2.27 ± 0.38 | 2.61 ± 0.27 |  |  |
